PMC12403663

B1: RBP4-binding aptamer (ssDNA)
DNA: ATACCAGCTTATTCAATTACAGTAGTGAGGGGTCCGTCGTGGGGTAGTTGGGTCGTGGAGATAGTAAGTGC
modifications: 5' Amino C6; 3' Thiol C6 SS

What was measured:
[1] = target: retinol-binding protein 4 (RBP4, also printed RPB4) (UniProt P02753 19-201); test: electrochemical aptasensor
[2] = target: human serum albumin (HSA) (Homo sapiens, UniProt P02768 25-609); test: electrochemical aptasensor
human serum albumin (HSA), sequence (P02768 25-609): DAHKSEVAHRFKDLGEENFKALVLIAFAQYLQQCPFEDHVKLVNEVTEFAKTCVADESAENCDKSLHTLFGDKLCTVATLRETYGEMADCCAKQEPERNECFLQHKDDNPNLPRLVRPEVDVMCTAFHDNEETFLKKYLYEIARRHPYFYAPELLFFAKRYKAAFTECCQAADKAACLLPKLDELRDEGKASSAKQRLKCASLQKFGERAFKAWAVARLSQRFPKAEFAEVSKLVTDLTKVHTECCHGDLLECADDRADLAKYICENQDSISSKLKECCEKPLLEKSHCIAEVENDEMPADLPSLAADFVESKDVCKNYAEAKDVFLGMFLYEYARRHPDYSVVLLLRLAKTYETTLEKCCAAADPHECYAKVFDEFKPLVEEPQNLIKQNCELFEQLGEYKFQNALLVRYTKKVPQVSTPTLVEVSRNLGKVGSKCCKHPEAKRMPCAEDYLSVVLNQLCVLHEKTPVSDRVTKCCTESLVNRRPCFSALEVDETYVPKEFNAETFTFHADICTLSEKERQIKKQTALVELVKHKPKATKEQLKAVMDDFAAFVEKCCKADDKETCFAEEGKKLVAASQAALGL

| Binder | binding result [1] | binding result [2] |
| --- | --- | --- |
| B1 | binds |  |
| TGCGGTTGTAGTACTCGTGGCCG (ssDNA, 5' Amino C6; 3' Thiol C6 SS) [HSA-binding aptamer] |  | binds |
